Reference: patent US20160039947A1 (Eli Lilly, published 2016)

Assays:
hHER-2-Fc [1] = target: T1, hHER-2-Fc (human, UniProt P04626 23-652); assay: sandwich ELISA: hHER-2-Fc coated, BsAb, hEGFR-Fc-biotin detection
T1 construct: Coated unlabelled in the sandwich ELISA; biotinylated and captured on an SA chip in the SPR assay; also called human HER-2-Fc; hHER-2-Fc-biotin; not shown: Fc part of the bought fusion protein
Procedure: (§1) Two sandwich ELISAs are developed, one for detecting anti-HER-2/anti-EGFR BsAb activity and one for detecting anti-cMET/anti-Axl BsAb activity. For both ELISAs, clear 96-well round bottom high binding Immulon microtiter plates (Greiner bio-one, cat#650061) are coated overnight at 2-8° C. with 50 μL/well 1 μg/mL hHER-2-Fc or 1 μg/mL hHGFR(cMet)-Fc (both from R&D systems) in a 50 mM Na₂CO₃ pH 8 buffer. The plates are washed 4 times with PB ST and blocked with 100 μL/well casein buffer (Pierce) for 1 hr at 37° C. The plates are then washed 4 times with PBST and the parental IgG controls or BsAb IgG test articles are added at 50 μL/well and 5 μg/mL and serially diluted 1:3 down the plate. The test articles are incubated on the plate for 1 hr at 37° C. The plates are then washed 4 times with PBST and 50 μL/well 0.2 μg/mL hEGFR-Fc-biotin or hAxl-Fc-biotin (both from R&D systems) is added for 1 hr at 37° C. The plates are then washed 4 times with PBST followed by the addition of a 50 μL/well streptavidin-HRP (Jackson Labs) diluted 1:2000 in PBST. The streptavidin-HRP is incubated in each well for 1 hr at 37° C. The plates are then washed 4 times with PBST and 100 μL/well 1-component TMB substrate is added (KPL laboratories). After approximately 10 minutes, 100 mL/well 1% H₃PO₄ (in H₂O) is added to each plate to quench the reaction. Absorbance (450 nm) of every well in the plates is read using a SpectraMax UV plate reader (Molecular Devices). Biotin-labeling of the hEGFR-Fc and hAxl-Fc proteins is performed using EZ-Link Sulfo-NHS-LC-Biotin (Thermo Scientific) according to the manufacturer's protocol.

hEGFR-Fc = target: T2, hEGFR-Fc (human, UniProt P00533 25-645); assay: as above
T2 construct: Biotin-labelled (EZ-Link Sulfo-NHS-LC-Biotin) as detection reagent in the ELISA; unlabelled second injection in SPR; also called hEGFR-Fc-biotin; not shown: Fc part of the bought fusion protein
Procedure: as §1

hHER-2-Fc [2] = target: T1, hHER-2-Fc; assay: sandwich ELISA: hHER-2-Fc coated, IgG, hEGFR-Fc-biotin detection
Procedure: as §1, with “After approximately 10 minutes, 100 mL/well 1% H₃PO₄ (in H₂O) is added to each plate to quench the reaction.” left out, “Biotin-labeling of the hEGFR-Fc and hAxl-Fc proteins is performed using EZ-Link Sulfo-NHS-LC-Biotin (Thermo Scientific) according to the manufacturer's protocol.” left out

hHGFR(cMet)-Fc = target: T3, hHGFR(cMet)-Fc (human, UniProt P08581 25-932); assay: sandwich ELISA: hHGFR(cMet)-Fc coated, IgG, hAxl-Fc-biotin detection
T3 construct: Coated in the sandwich ELISA; second injection in SPR; not shown: Fc part of the bought fusion protein
T3 sequence (P08581 25-932): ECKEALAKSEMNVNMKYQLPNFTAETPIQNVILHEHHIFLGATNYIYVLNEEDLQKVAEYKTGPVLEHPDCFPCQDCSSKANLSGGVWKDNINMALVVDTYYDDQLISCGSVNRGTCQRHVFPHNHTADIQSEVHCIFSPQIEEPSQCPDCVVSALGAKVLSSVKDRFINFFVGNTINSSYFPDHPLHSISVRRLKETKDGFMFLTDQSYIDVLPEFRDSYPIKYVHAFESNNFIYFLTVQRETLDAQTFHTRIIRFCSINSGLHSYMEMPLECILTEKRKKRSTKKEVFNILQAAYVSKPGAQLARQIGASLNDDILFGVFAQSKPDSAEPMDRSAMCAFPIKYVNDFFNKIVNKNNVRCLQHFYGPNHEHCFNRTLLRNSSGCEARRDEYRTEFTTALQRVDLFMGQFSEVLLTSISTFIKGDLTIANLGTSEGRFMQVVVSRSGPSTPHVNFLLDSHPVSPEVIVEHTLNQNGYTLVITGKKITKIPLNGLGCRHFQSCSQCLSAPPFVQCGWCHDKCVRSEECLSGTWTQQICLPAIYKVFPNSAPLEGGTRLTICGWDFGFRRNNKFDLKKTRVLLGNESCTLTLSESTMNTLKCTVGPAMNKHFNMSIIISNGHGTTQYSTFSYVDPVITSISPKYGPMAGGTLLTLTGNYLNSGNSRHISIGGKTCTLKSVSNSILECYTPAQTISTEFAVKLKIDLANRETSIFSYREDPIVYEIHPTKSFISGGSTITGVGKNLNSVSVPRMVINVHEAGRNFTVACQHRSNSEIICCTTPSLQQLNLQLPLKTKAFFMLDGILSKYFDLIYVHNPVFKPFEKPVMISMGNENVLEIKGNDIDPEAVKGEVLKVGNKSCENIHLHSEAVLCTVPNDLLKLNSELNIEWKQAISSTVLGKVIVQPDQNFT
Procedure: as §1, with “After approximately 10 minutes, 100 mL/well 1% H₃PO₄ (in H₂O) is added to each plate to quench the reaction.” left out, “Biotin-labeling of the hEGFR-Fc and hAxl-Fc proteins is performed using EZ-Link Sulfo-NHS-LC-Biotin (Thermo Scientific) according to the manufacturer's protocol.” left out

B1: HEDesign λλ (anti-HER-2/anti-EGFR IgG BsAb with Fab redesigns) (bispecific antibody)
heavy 1: EVQLVESGGGLVQPGGSLRLSCAASGFTFTDYTMDWVRKAPGKGLEWVADVNPNSGGSIYNQEFKGRFTLSVDRSKNTLYLQMNSLRAEDTAVYYCARNLGPSFYFDYWGQGTLVTVSSASTKGPSVFPLAPSSKSTSGGTAALGCLVKDYFPEPVTVSWNSGALTSGVATGPAVLQSSGLYSLSSVVTVPSSSLGTQTYICNVNHKPSNTKVDKKVEPKSCDKTHTCPPCPAPELLGGPSVFLFPPKPKDTLMISRTPEVTCVVVDVSHEDPEVKFNWYVDGVEVHNAKTKPREEQYQSTYRVVSVLTVLHQDWLNGKEYKCKVSNKALPAPIEKTISKAKGQPREPQVYTLPPSRDELTKNQVSLTCLVKGFYPSDIAVEWESNGQPENNYDTTPPVLDSDGSFFLYSDLTVDKSRWQQGNVFSCSVMHEALHNHYTQKSLSLSPG
light 1: RIQMTQSPSSLSASVGDRVTITCKASQDVSIGVAWYQDKPGKAPKLLIYSASYRYTGVPSRFSGSGSGTDFTLTISSLQPEDFATYYCQQYYIYPYTFGQGTKVEIKGQPKAAPSVTLFPPSSEELQANKATLVCYISDFYPGAVTVAWKADSSPVKAGVETTTPSKQSNNKYAAWSYLSLTPEQWKSHRSYSCQVTHEGSTVEKTVAPTEC
heavy 2: QVQLVQSGAEVKKPGASVKVSCKASGYTFTSHWMHWVRYAPGQGLEWIGEFNPSNGRTNYNEKFKSKATMTVDTSTNTAYMELSSLRSEDTAVYYCASRDYDYDGRYFDYWGQGTLVTVSSASTKGPSVFPLAPSSKSTSGGTAALGCLVKDYFPEPVTVSWNSGALTSGVHTFPAVLQSSGLYSLSSVVTVPSSSLGTQTYICNVNHKPSNTKVDKKVEPKSCDKTHTCPPCPAPELLGGPSVFLFPPKPKDTLMISRTPEVTCVVVDVSHEDPEVKFNWYVDGVEVHNAKTKPREEQYQSTYRVVSVLTVLHQDWLNGKEYKCKVSNKALPAPIEKTISKAKGQPREPQVYTLPPSRKELTKNQVSLTCLVKGFYPSDIAVEWESNGQPENNYKTTPPVLKSDGSFFLYSKLTVDKSRWQQGNVFSCSVMHEALHNHYTQKSLSLSPG
light 2: DIQMTQSPSSLSASVGDRVTITCSASSSVTYMYWYQRKPGKAPKLLIYDTSNLASGVPSRFSGSGSGTDYTFTISSLQPEDIATYYCQQWSSHIFTFGQGTKVEIKGQPKAAPSVTLFPPSSEELQANKATLVCLISDFYPGAVTVAWKADSSPVKAGVETTTPSKQSNNKYAASSYLSLTPEQWKSHRSYSCQVTHEGSTVEKTVAPTEC
notes: also called HE Designs
B1: binds (hHER-2-Fc [1]); binds (hEGFR-Fc).

B2: HEDesign λκ (anti-HER-2/anti-EGFR IgG BsAb with Fab redesigns) (bispecific antibody)
heavy 1: EVQLVESGGGLVQPGGSLRLSCAASGFTFTDYTMDWVRKAPGKGLEWVADVNPNSGGSIYNQEFKGRFTLSVDRSKNTLYLQMNSLRAEDTAVYYCARNLGPSFYFDYWGQGTLVTVSSASTKGPSVFPLAPSSKSTSGGTAALGCLVKDYFPEPVTVSWNSGALTSGVATGPAVLQSSGLYSLSSVVTVPSSSLGTQTYICNVNHKPSNTKVDKKVEPKSCDKTHTCPPCPAPELLGGPSVFLFPPKPKDTLMISRTPEVTCVVVDVSHEDPEVKFNWYVDGVEVHNAKTKPREEQYQSTYRVVSVLTVLHQDWLNGKEYKCKVSNKALPAPIEKTISKAKGQPREPQVYTLPPSRDELTKNQVSLTCLVKGFYPSDIAVEWESNGQPENNYDTTPPVLDSDGSFFLYSDLTVDKSRWQQGNVFSCSVMHEALHNHYTQKSLSLSPG
light 1: RIQMTQSPSSLSASVGDRVTITCKASQDVSIGVAWYQDKPGKAPKLLIYSASYRYTGVPSRFSGSGSGTDFTLTISSLQPEDFATYYCQQYYIYPYTFGQGTKVEIKGQPKAAPSVTLFPPSSEELQANKATLVCYISDFYPGAVTVAWKADSSPVKAGVETTTPSKQSNNKYAAWSYLSLTPEQWKSHRSYSCQVTHEGSTVEKTVAPTEC
heavy 2: QVQLVQSGAEVKKPGASVKVSCKASGYTFTSHWMHWVRYAPGQGLEWIGEFNPSNGRTNYNEKFKSKATMTVDTSTNTAYMELSSLRSEDTAVYYCASRDYDYDGRYFDYWGQGTLVTVSSASTKGPSVFPLAPSSKSTSGGTAALGCLVKDYFPEPVTVSWNSGALTSGVHTFPAVLQSSGLYSLSSVVTVPSSSLGTQTYICNVNHKPSNTKVDKKVEPKSCDKTHTCPPCPAPELLGGPSVFLFPPKPKDTLMISRTPEVTCVVVDVSHEDPEVKFNWYVDGVEVHNAKTKPREEQYQSTYRVVSVLTVLHQDWLNGKEYKCKVSNKALPAPIEKTISKAKGQPREPQVYTLPPSRKELTKNQVSLTCLVKGFYPSDIAVEWESNGQPENNYKTTPPVLKSDGSFFLYSKLTVDKSRWQQGNVFSCSVMHEALHNHYTQKSLSLSPG
light 2: DIQMTQSPSSLSASVGDRVTITCSASSSVTYMYWYQRKPGKAPKLLIYDTSNLASGVPSRFSGSGSGTDYTFTISSLQPEDIATYYCQQWSSHIFTFGQGTKVEIKRTVAAPSVFIFPPSDEQLKSGTASVVCLLNNFYPREAKVQWKVDNALQSGNSQESVTEQDSKDSTYSLSSTLTLSKADYEKHKVYACEVTHQGLSSPVTKSFNRGEC
notes: also called HE Designs
B2: binds (hHER-2-Fc [1]); binds (hEGFR-Fc).

B3: HEDesign κλ (anti-HER-2/anti-EGFR IgG BsAb with Fab redesigns) (bispecific antibody)
heavy 1: EVQLVESGGGLVQPGGSLRLSCAASGFTFTDYTMDWVRKAPGKGLEWVADVNPNSGGSIYNQEFKGRFTLSVDRSKNTLYLQMNSLRAEDTAVYYCARNLGPSFYFDYWGQGTLVTVSSASTKGPSVFPLAPSSKSTSGGTAALGCLVKDYFPEPVTVSWNSGALTSGVATGPAVLQSSGLYSLSSVVTVPSSSLGTQTYICNVNHKPSNTKVDKKVEPKSCDKTHTCPPCPAPELLGGPSVFLFPPKPKDTLMISRTPEVTCVVVDVSHEDPEVKFNWYVDGVEVHNAKTKPREEQYQSTYRVVSVLTVLHQDWLNGKEYKCKVSNKALPAPIEKTISKAKGQPREPQVYTLPPSRDELTKNQVSLTCLVKGFYPSDIAVEWESNGQPENNYDTTPPVLDSDGSFFLYSDLTVDKSRWQQGNVFSCSVMHEALHNHYTQKSLSLSPG
light 1: RIQMTQSPSSLSASVGDRVTITCKASQDVSIGVAWYQDKPGKAPKLLIYSASYRYTGVPSRFSGSGSGTDFTLTISSLQPEDFATYYCQQYYIYPYTFGQGTKVEIKRTVAAPSVFIFPPSDEQLKSGTASVVCYLNNFYPREAKVQWKVDNALQSGNSQESVTEQDSKDSTYSLWSTLTLSKADYEKHKVYACEVTHQGLSSPVTKSFNRGEC
heavy 2: QVQLVQSGAEVKKPGASVKVSCKASGYTFTSHWMHWVRYAPGQGLEWIGEFNPSNGRTNYNEKFKSKATMTVDTSTNTAYMELSSLRSEDTAVYYCASRDYDYDGRYFDYWGQGTLVTVSSASTKGPSVFPLAPSSKSTSGGTAALGCLVKDYFPEPVTVSWNSGALTSGVHTFPAVLQSSGLYSLSSVVTVPSSSLGTQTYICNVNHKPSNTKVDKKVEPKSCDKTHTCPPCPAPELLGGPSVFLFPPKPKDTLMISRTPEVTCVVVDVSHEDPEVKFNWYVDGVEVHNAKTKPREEQYQSTYRVVSVLTVLHQDWLNGKEYKCKVSNKALPAPIEKTISKAKGQPREPQVYTLPPSRKELTKNQVSLTCLVKGFYPSDIAVEWESNGQPENNYKTTPPVLKSDGSFFLYSKLTVDKSRWQQGNVFSCSVMHEALHNHYTQKSLSLSPG
light 2: DIQMTQSPSSLSASVGDRVTITCSASSSVTYMYWYQRKPGKAPKLLIYDTSNLASGVPSRFSGSGSGTDYTFTISSLQPEDIATYYCQQWSSHIFTFGQGTKVEIKGQPKAAPSVTLFPPSSEELQANKATLVCLISDFYPGAVTVAWKADSSPVKAGVETTTPSKQSNNKYAASSYLSLTPEQWKSHRSYSCQVTHEGSTVEKTVAPTEC
notes: also called HE Designs
B3: binds (hHER-2-Fc [1]); binds (hEGFR-Fc).

B4: matuzumab IgG1 (mG1) (antibody, V domains shown)
VH: QVQLVQSGAEVKKPGASVKVSCKASGYTFTSHWMHWVRQAPGQGLEWIGEFNPSNGRTNYNEKFKSKATMTVDTSTNTAYMELSSLRSEDTAVYYCASRDYDYDGRYFDYWGQGTLVTVSS
VL: DIQMTQSPSSLSASVGDRVTITCSASSSVTYMYWYQQKPGKAPKLLIYDTSNLASGVPSRFSGSGSGTDYTFTISSLQPEDIATYYCQQWSSHIFTFGQGTKVEIKG
notes: also called matuzumab (anti-EGFR) control IgG
B4: no binding (tested: 5 µg/mL, serially diluted 1:3) (hHER-2-Fc [2]).

B5: Anti-Axl IgG1 (AxlG1) (antibody, V domains shown)
VH: EVQLVESGGGLVQPGGSLRLSCAASGFSLSGSWIHWVRQAPGKGLEWVGWINPYRGYAYYADSVKGRFTISADTSKNTAYLQMNSLRAEDTAVYYCAREYSGWGGSSVGYAMDYWGQGTLVTVSS
VL: DIQMTQSPSSLSASVGDRVTITCRASQDVSTAVAWYQQKPGKAPKLLIYSASFLYSGVPSRFSGSGSGTDFTLTISSLQPEDFATYYCQQSYTTPPTFGQGTKVEIKG
notes: also called anti-Axl antibody YW327.6S2 control IgG
B5: no binding (tested: 5 µg/mL, serially diluted 1:3) (hHGFR(cMet)-Fc).
